Residue numbers refer to the chain shown, from its start. Names and notes keep the numbering of the source. Blank lines part the entries; values can stand above or below the binder they belong to.
Tests used:
[1] = molecular target: T1, FLAG-tagged PlexinA4 extracellular region K343E (mouse, UniProt Q80UG2 33-1226, K343E); assay: pull-down; FLAG-tagged PlexinA4 (20 µg) on anti-FLAG antibody resin; Nrp1 and Sema3A, 30 µg each, added together; 20 mM HEPES (pH 7.5), 150 mM NaCl, 1 mM CaCl2, 4 °C, 1 h; SDS-PAGE, Coomassie blue; conditions: both partners purified
T1 construct: mouse PlexinA4 residues 33–1226, extracellular region, K343E; also called PlexinA4-K343E; source: Expi293F, purified from medium (Ni-NTA, Superose 6); not shown: FLAG, N-terminal, kept
T1 sequence (looked up): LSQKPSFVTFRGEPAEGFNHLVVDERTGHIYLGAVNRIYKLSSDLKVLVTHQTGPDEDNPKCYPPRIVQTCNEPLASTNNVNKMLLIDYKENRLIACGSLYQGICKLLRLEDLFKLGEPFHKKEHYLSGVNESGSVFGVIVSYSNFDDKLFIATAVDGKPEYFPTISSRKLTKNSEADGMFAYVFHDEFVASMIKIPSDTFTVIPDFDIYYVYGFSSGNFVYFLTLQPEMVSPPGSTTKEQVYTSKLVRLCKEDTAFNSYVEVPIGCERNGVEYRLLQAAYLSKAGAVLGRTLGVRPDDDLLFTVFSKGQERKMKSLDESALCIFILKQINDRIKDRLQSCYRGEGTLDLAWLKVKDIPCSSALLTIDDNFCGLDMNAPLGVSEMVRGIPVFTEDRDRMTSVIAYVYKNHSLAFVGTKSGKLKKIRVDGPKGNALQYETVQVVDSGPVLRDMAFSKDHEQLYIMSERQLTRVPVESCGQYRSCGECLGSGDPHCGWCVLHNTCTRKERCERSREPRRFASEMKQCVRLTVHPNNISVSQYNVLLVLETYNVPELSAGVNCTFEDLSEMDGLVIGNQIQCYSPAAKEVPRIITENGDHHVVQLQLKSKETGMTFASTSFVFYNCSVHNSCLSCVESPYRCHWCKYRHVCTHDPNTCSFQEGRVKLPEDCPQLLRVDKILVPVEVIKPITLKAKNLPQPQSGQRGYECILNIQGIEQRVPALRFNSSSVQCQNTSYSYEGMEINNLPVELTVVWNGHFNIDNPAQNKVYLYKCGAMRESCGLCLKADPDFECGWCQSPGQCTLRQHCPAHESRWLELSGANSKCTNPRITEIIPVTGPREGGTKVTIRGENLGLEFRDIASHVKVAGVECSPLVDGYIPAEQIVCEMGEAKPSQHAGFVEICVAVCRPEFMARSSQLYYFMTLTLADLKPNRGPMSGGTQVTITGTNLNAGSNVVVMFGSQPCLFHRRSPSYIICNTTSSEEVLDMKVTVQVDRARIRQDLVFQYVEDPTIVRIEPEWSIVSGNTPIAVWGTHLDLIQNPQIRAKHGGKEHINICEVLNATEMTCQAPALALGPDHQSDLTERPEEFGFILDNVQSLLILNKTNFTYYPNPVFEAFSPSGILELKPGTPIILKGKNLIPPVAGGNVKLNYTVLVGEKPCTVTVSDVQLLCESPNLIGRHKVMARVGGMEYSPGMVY

[2] = molecular target: T2, FLAG-tagged PlexinA4 extracellular region (mouse, UniProt Q80UG2 33-1226); assay: as above; conditions: both partners purified
T2 construct: mouse PlexinA4 residues 33–1226, extracellular region; FLAG inserted immediately after the signal peptide; also called PlexinA4-WT; source: Expi293F, purified from medium (Ni-NTA, Superose 6); not shown: FLAG, N-terminal, kept
T2 sequence (looked up): T1 sequence (looked up) with E311K

binding result [1]: binds
binding result [2]: binds
B1: Nrp1-a1a2b1b2 (receptor, mouse, UniProt P97333 22-588, looked up)
chain: FRSDKCGGTIKIENPGYLTSPGYPHSYHPSEKCEWLIQAPEPYQRIMINFNPHFDLEDRDCKYDYVEVIDGENEGGRLWGKFCGKIAPSPVVSSGPFLFIKFVSDYETHGAGFSIRYEIFKRGPECSQNYTAPTGVIKSPGFPEKYPNSLECTYIIFAPKMSEIILEFESFDLEQDSNPPGGMFCRYDRLEIWDGFPEVGPHIGRYCGQKTPGRIRSSSGVLSMVFYTDSAIAKEGFSANYSVLQSSISEDFKCMEALGMESGEIHSDQITASSQYGTNWSVERSRLNYPENGWTPGEDSYKEWIQVDLGLLRFVTAVGTQGAISKETKKKYYVKTYRVDISSNGEDWISLKEGNKAIIFQGNTNPTDVVLGVFSKPLITRFVRIKPVSWETGISMRFEVYGCKITDYPCSGMLGMVSGLISDSQITASNQADRNWMPENIRLVTSRTGWALPPSPHPYTNEWLQVDLGDEKIVRGVIIQGGKHRENKVFMRKFKIAYSNNGSDWKTIMDDSKRKAKSFEGNNNYDTPELRTFSPLSTRFIRIYPERATHSGLGLRMELLGCEVEAP
notes: mouse Neuropilin 1 residues 22–588, domains a1, a2, b1 and b2; also called MAM-domain truncated version of Nrp1; Nrp1-WT; source: Expi293F, transfected alone or co-expressed with Sema3A and PlexinA4, purified from medium (Ni-NTA, Superose 6)

binding result [1]: binds
binding result [2]: binds
B2: Sema3A (21–770) (ligand, mouse, UniProt O08665 21-770, looked up)
chain: NYANGKNNVPRLKLSYKEMLESNNVITFNGLANSSSYHTFLLDEERSRLYVGAKDHIFSFNLVNIKDFQKIVWPVSYTRRDECKWAGKDILKECANFIKVLEAYNQTHLYACGTGAFHPICTYIEVGHHPEDNIFKLQDSHFENGRGKSPYDPKLLTASLLIDGELYSGTAADFMGRDFAIFRTLGHHHPIRTEQHDSRWLNDPRFISAHLIPESDNPEDDKVYFFFRENAIDGEHSGKATHARIGQICKNDFGGHRSLVNKWTTFLKARLICSVPGPNGIDTHFDELQDVFLMNSKDPKNPIVYGVFTTSSNIFKGSAVCMYSMSDVRRVFLGPYAHRDGPNYQWVPYQGRVPYPRPGTCPSKTFGGFDSTKDLPDDVITFARSHPAMYNPVFPINNRPIMIKTDVNYQFTQIVVDRVDAEDGQYDVMFIGTDVGTVLKVVSVPKETWHDLEEILLEEMTVFREPTTISAMELSTKQQQLYIGSTAGVAQLPLHRCDIYGKACAECCLARDPYCAWDGSSCSRYFPTAKARTRAQDIRNGDPLTHCSDLQHHDNHHGPSLEERIIYGVENSSTFLECSPKSQRALVYWQFQRRNEDRKEEIRMGDHIIRTEQGLLLRSLQKKDSGNYLCHAVEHGFMQTLLKVTLEVIDTEHLEELLHKDDDGDGSKIKEMSSSMTPSQKVWYRDFMQLINHPNLNTMDEFCEQVWKRDAAQAAQRPGHSQGSSNKWKHMQESKKGANRATHEFERAPR
notes: mouse Sema3A residues 21–770, ending at Arg770; internal furin sites mutated; without the A106K mutation; PDB 7M0R holds the A106K form; also called Sema3A-WT; wild-type Sema3A; source: Expi293F, purified from medium (Ni-NTA, Superose 6)

Reference: publication PMC8155012, “Architecture of the Sema3A/PlexinA4/Neuropilin tripartite complex” (Nature Communications, 2021)
